# Assay results published in the supplement of paper PMC10567573.
# B1: HDAC6 (parent)
# chain: QYMNEGELRVLADTYDSVYLHPNS
# Variants of: B1
# Assay: protein stability index of a GFP-peptide fusion (GPS, HEK-293T) (PSI 1-6); higher = more stable
# Settings: c terminus: a fixed tail appended
# 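Further: lentivirally expressed fusions sorted by FACS into six bins by GFP to DsRed ratio, PSI derived from sequencing read proportions per bin multiplied by bin number.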
row,Variant,protein stability index
1,QYMNEGELRVLADTYDSVYLCPNS [H21C],3.56
2,QYMNEGELRVLADTYDSVYLLPNS [H21L],1.71
3,QYMNEGELRVLADTYDSVYLPPNS [H21P],1.85
4,QYMNEGELRVLADTYDSVYLYPNS [H21Y],2.18
5,QYMNEGELRVLADTYDSVYLKPNS [H21K],1.92
6,QYMNEGELRVLADTYDSVYLSPNS [H21S],1.55
7,QYMNEGELRVLADTYDSVYLDPNS [H21D],1.84
8,QYMNEGELRVLADTYDSVYLRPNS [H21R],1.76
9,QYMNEGELRVLADTYDSVYLEPNS [H21E],2.33
10,QYMNEGELRVLADTYDSVYLQPNS [H21Q],2.11
11,QYMNEGELRVLADTYDSVYLIPNS [H21I],2.25
12,QYMNEGELRVLADTYDSVYLGPNS [H21G],1.64
13,QYMNEGELRVLADTYDSVYLMPNS [H21M],1.47
14,QYMNEGELRVLADTYDSVYLFPNS [H21F],3.64
15,QYMNEGELRVLADTYDSVYLTPNS [H21T],1.38
16,QYMNEGELRVLADTYDSVYLNPNS [H21N],2.21
17,QYMNEGELRVLADTYDSVYLAPNS [H21A],1.43
18,QYMNEGELRVLADTYDSVYLWPNS [H21W],1.84
19,QYMNEGELRVLADTYDSVYKHPNS [L20K],1.87
20,QYMNEGELRVLADTYDSVYAHPNS [L20A],2.54
21,QYMNEGELRVLADTYDSVYTHPNS [L20T],2.88
22,QYMNEGELRVLADTYDSVYYHPNS [L20Y],2.38
23,QYMNEGELRVLADTYDSVYIHPNS [L20I],1.39
24,QYMNEGELRVLADTYDSVYNHPNS [L20N],2.42

row,Variant,protein stability index
1,QYMNEGELRVLADTYDSVYMHPNS [L20M],2.14
2,QYMNEGELRVLADTYDSVYFHPNS [L20F],2
3,QYMNEGELRVLADTYDSVYHHPNS [L20H],3
4,QYMNEGELRVLADTYDSVYVHPNS [L20V],2.22
5,QYMNEGELRVLADTYDSVYSHPNS [L20S],3.32
6,QYMNEGELRVLADTYDSVYEHPNS [L20E],2.26
7,QYMNEGELRVLADTYDSVYDHPNS [L20D],3.27
8,QYMNEGELRVLADTYDSVYQHPNS [L20Q],2.58
9,QYMNEGELRVLADTYDSVYPHPNS [L20P],2.68
10,QYMNEGELRVLADTYDSVYGHPNS [L20G],2.14
11,QYMNEGELRVLADTYDSVYWHPNS [L20W],1.67
12,QYMNEGELRVLADTYDSVYRHPNS [L20R],2.06
13,QYMNEGELRVLWDTYDSVYLHPNS [A12W],1.02
14,QYMNEGELRVLVDTYDSVYLHPNS [A12V],1.09
15,QYMNEGELRVLTDTYDSVYLHPNS [A12T],2.54
16,QYMNEGELRVLYDTYDSVYLHPNS [A12Y],2.1
17,QYMNEGELRVLADTYDSVYLHPMS [N23M],1.23
18,QYMNEGELRVLADTYDSVYLHPES [N23E],2.69
19,QYMNEGELRVLADTYDSVYLHPKS [N23K],2.36
20,QYMNEGELRVLADTYDSVYLHPCS [N23C],1.99
21,QYMNEGELRVLADTYDSVYLHPFS [N23F],1.96
22,QYMNEGELRVLADTYDSVYLHPPS [N23P],1.57
23,QYMNEGELRVLADTYDSVYLHPAS [N23A],1.43
24,QYMNEGELRVLADTYDSVYLHPIS [N23I],2.31

row,Variant,protein stability index
1,QYMNEGELRVLADTYDSVYLHPHS [N23H],1.94
2,QYMNEGELRVLADTYDSVYLHPSS [N23S],2.34
3,QYMNEGELRVLADTYDSVYLHPRS [N23R],2.17
4,QYMNEGELRVLADTYDSVYLHPQS [N23Q],1.92
5,QYMNEGELRVLADTYDSVYLHPDS [N23D],1.8
6,QYMNEGELRVLADTYDSVYLHPLS [N23L],1.6
7,QYMNEGELRVLAETYDSVYLHPNS [D13E],1.6
8,QYMNEGELRVLACTYDSVYLHPNS [D13C],1.2
9,QYMNEGELRVLARTYDSVYLHPNS [D13R],1.27
10,QYMNEGELRVLAVTYDSVYLHPNS [D13V],1.97
11,QYMNEGELRVLAQTYDSVYLHPNS [D13Q],1.57
12,QYMNEGELRVLAGTYDSVYLHPNS [D13G],2.86
13,QYMNEGELRVLAFTYDSVYLHPNS [D13F],3.63
14,QYMNEGELRVLATTYDSVYLHPNS [D13T],2.08
15,QYMNEGELRVLANTYDSVYLHPNS [D13N],2.23
16,QYMNEGELRVLALTYDSVYLHPNS [D13L],1.45
17,QYMNEGELRVLAHTYDSVYLHPNS [D13H],1.77
18,QYMNEGELRVLASTYDSVYLHPNS [D13S],1.9
19,QYMNEGELRVLAKTYDSVYLHPNS [D13K],1.16
20,QYMNEGELRVLAITYDSVYLHPNS [D13I],2.2
21,QYMNEGELRVLAWTYDSVYLHPNS [D13W],1.37
22,QYMNEGELRVLAPTYDSVYLHPNS [D13P],1.94
23,QYMNEGELRVLADTYDTVYLHPNS [S17T],2.37
24,QYMNEGELRVLADTYDPVYLHPNS [S17P],3.32

row,Variant,protein stability index
1,QYMNEGELRVLADTYDNVYLHPNS [S17N],2.08
2,QYMNEGELRVLADTYDRVYLHPNS [S17R],2.18
3,QYMNEGELRVLADTYDQVYLHPNS [S17Q],2.5
4,QYMNEGELRVLADTYDEVYLHPNS [S17E],2.99
5,QYMNEGELRVLADTYDGVYLHPNS [S17G],2.05
6,QYMNEGELRVLADTYDMVYLHPNS [S17M],1.95
7,QYMNEGELRVLADTYDFVYLHPNS [S17F],2.53
8,QYMNEGELRVLADTYDCVYLHPNS [S17C],2.46
9,QYMNEGELRVLADTYDWVYLHPNS [S17W],2.57
10,QYMNEGELRVLADTYDVVYLHPNS [S17V],2.09
11,QYMNEGELRVLADTYDKVYLHPNS [S17K],1.78
12,QYMNEGELRVLADTYDIVYLHPNS [S17I],2.32
13,QYMNEGELRVLADTYDYVYLHPNS [S17Y],1.47
14,QYMNEGELRVLADTYDDVYLHPNS [S17D],2.56
15,QYMNEGELRVLADTYDHVYLHPNS [S17H],2.07
16,QYMNEGELRVLADTYDLVYLHPNS [S17L],2.02
17,QYMNEGELRVLADTKDSVYLHPNS [Y15K],3.46
18,QYMNEGELRVLADTIDSVYLHPNS [Y15I],1.81
19,QYMNEGELRVLADTNDSVYLHPNS [Y15N],2.65
20,QYMNEGELRVLADTVDSVYLHPNS [Y15V],2.38
21,QYMNEGELRVLADTQDSVYLHPNS [Y15Q],2.95
22,QYMNEGELRVLADTEDSVYLHPNS [Y15E],3.18
